Experimental findings from patent publication US20020147129A1 are described below.

The test concerns the target embryonic chicken AT4 receptor (chicken). The experiment in a line: competition for [125I]Ang IV binding, E13 chicken chorioallantoic membranes.

Chain of embryonic chicken AT4 receptor (chicken) (F1NNE7 entry or part of it): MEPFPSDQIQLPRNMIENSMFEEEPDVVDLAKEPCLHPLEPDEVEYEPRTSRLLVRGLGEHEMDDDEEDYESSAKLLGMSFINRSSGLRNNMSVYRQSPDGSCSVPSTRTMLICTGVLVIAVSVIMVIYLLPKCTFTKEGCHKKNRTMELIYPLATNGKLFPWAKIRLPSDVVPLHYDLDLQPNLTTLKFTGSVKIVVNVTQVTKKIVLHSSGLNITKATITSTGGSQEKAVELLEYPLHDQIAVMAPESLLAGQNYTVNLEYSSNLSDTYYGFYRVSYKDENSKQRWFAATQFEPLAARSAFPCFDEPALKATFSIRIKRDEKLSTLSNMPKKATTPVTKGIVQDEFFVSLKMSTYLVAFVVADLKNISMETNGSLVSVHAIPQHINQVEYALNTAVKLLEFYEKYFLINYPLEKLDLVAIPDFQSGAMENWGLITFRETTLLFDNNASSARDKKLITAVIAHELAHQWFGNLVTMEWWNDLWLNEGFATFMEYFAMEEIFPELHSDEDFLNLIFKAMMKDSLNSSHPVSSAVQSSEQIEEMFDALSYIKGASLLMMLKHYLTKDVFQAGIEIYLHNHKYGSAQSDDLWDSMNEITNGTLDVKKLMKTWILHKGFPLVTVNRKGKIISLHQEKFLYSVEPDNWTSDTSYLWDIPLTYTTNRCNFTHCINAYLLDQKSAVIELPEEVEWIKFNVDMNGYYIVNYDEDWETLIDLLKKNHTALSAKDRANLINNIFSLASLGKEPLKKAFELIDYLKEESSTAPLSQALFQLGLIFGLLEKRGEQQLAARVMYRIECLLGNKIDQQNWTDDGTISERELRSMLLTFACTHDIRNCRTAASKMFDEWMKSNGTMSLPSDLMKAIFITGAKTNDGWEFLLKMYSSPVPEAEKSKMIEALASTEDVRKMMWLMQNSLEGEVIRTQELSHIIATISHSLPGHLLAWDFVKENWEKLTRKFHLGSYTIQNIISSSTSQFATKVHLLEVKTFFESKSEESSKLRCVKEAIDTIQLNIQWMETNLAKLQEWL

A word on the IC50: it is the concentration that inhibits the measured activity by half. Read a low IC50 as greater potency in that assay. In turn, Nle^1-Y-I-amide (peptide) returned an IC50 of 2200 nM.
